What was measured:
Assay in all cases: cell-based or functional assay
CD14 = target: T1, CD14 (UniProt P08571)
T1 sequence: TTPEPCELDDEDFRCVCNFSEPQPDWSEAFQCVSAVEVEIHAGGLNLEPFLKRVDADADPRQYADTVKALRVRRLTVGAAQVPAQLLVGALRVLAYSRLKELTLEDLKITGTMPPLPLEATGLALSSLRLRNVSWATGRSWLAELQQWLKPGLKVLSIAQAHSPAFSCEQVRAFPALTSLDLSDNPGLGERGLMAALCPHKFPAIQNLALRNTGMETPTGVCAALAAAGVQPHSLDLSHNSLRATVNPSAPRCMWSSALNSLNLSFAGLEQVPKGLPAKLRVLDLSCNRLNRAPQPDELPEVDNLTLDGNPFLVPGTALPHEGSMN

[1] = target: T cell receptor (TCRab) (human)
human CD8a (human) = human CD8a (human) (UniProt P01732)
Chain of UniProt P01732 (P01732 22-235): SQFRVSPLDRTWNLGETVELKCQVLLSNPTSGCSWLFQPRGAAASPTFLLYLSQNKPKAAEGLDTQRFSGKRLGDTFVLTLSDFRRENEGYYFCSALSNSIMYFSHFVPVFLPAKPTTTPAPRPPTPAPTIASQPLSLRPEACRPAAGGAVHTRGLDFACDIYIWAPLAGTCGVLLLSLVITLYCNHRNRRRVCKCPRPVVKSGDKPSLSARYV

B1: Nanobody (VHH) CD14 3RMB1 (VHH)
VHH: QVQLQESGGGLVQSGGSLRLSCAVSGSIFSIVDMGWYRQAPGKGRELVAELSDGSTNYADSVLGRFTISRDNAKNTVYLQMNSLKPEDTAVYYCNADLTGSSWSPYRYLEVWGQGTQVTVSS
- percentage transduction of target negative cells (flow cytometry, 7-14 days) (CD14): < 1%

B2: membrane anchored anti-CD14 scFv (scFv)
scFv: DDVQLQQSGPGLVKPSQSLSLTCTVTGYSITSDSAWNWIRQFPGNRLEWMGYISYSGSTSYNPSLKSRISITRDTSKNQFFLQLNSVTTEDTATYYCVRGLRFAYWGQGTLVTVSSGGGGSGGGGSGGGGSDIVLTQSPASLAVSLGQRATISCRASESVDSYVNSFLHWYQQKPGQPPKLLIYRASNLQSGIPARFSGSGSRTDFTLTINPVEADDVATYYCQQSNEDPYTFGGGTKLEIK
- percentage transduction of primary monocytes versus non-stimulated PBMCs (GFP, flow cytometry, day 7) (CD14): < 2%

B3: TCRab VHH (VHH)
VHH: EVQLVESGGGLVQPGGSLRLSCAASGDVHKINILGWYRQAPAKEREMVAHITIGDATDYADSAKGRFTISRDEAKNMVYLQMNSLKPEDTAVYFCRAYSRIYPYNYWGQGTLVTVSS
- percentage transduction of target negative cells (flow cytometry, day 7) [1]: < 1%

B4: membrane anchored VHH targeting human CD8a (VHH)
VHH: EVQLVESGGGLVQPGGSLRLSCAASGFTFDDYVIGWFRQAPGKGREGVACIRIFDRHTYYADSVKGRFTISSDNSKNTVYLQMNSLRAEDTATYYCAAGSFFGCTRPEGDMDYFGQGTLVQVQS
- percentage transduction of target negative cells (flow cytometry, day 7) (human CD8a (human)): < 1%
